Source: patent publication US7385023B1, “Cancer immunotherapy and diagnosis using cytochrome P450 1B1” (Trustees of Boston University, priority 2000, dated 2008)
Each block holds one molecule with its values, some of them ahead of it. Peptide text beside a SMILES is read from it.

Tests used:
[1] = test system: primary follicular lymphoma (FL) cells; assay: 51Cr release cytotoxicity assay, primary follicular lymphoma; type: cell-based, human; conditions: HLA-A2+ CYP1B1+ FL, CTL from healthy donors
Procedure: CYP1B1-specific CTLs were then evaluated for cytotoxicity against primary tumor tissue.

[2] = test system: T cells from HLA-A2+ healthy donors; conditions: for healthy donors with peptide-specific T cells detected / expansion: n=8, day 10
[3] = test system: T cells from HLA-A2+ multiple myeloma patients; conditions: n=10
[4] = test system: HLA-A2+ ovarian carcinoma cell line 36M
[5] = test system: T2 cells; assay: 51Cr release cytotoxicity assay, peptide-pulsed T2 cells; type: cell-based; conditions: for recognition by CYP239-specific CTL of target cells pulsed with heteroclitic peptide: CTL generated against wild type CYP239
[6] = biological target: HLA-A*0201 (Homo sapiens, UniProt P04439, D140Y/D185E/D98H/E176V/E277Q/G131W/G231S/I119V/I121R/I166T/I218V/L300P/L318F/N151K/N90K/P208A/P217A/Q86G/Q94H/R138H/R169H/T345S); assay: HLA-A2/peptide complex stability on TAP-deficient T2 cells; type: binding
[7] = test system: CD8+ T cells of HLA-A2+ cancer patients; assay: Ex vivo generation of peptide-specific CTL from cancer patients; type: cell-based, human
Source text: Similar to experiments described for healthy donors, we next attempted to generate CYP1B1-specific CTL from peripheral blood of cancer patients. […] Due to lower numbers of PBMC available, CYP246-specific CTL cultures were only initiated in patients 3 and 4. […] Because autologous tumor cells were not available from these patients, we tested the same FL samples described above as primary tumor targets. CYP239-specific CTL from patient 1 lysed both HLA-A2^+ FL samples but not the HLA-A2^− (18% vs. 0% at an E:T ration of 30:1).

[8] = test system: HLA-A2+ primary ALL cells; assay: 51Cr release cytotoxicity assay, primary ALL; type: cell-based, human
Procedure: Peptides were pulsed onto TAP-deficient T2 cells, and the maximum binding and the stability over time were assessed by flow cytometry. […] Additional experiments were carried out to characterize these peptides, in particular, CYP190.

[9] = test system: CD8+ T cells of healthy HLA-A2+ donors; assay: Ex vivo generation of peptide-specific CTL from healthy HLA-A2+ donors
[10] = biological target: T1, HLA-A*0201 on the surface of TAP-deficient T2 cells (human); assay: T2 cell assay of HLA-A*0201/peptide complex stability, flow cytometry
T1 construct: detected with FITC-labeled mAb BB7.2; also called HLA-A2

[11] = biological target: T1, HLA-A*0201 on the surface of …; assay: T2 cell HLA-A*0201 stabilisation assay, flow cytometry with FITC-BB7.2
[12] = biological target: T1, HLA-A*0201 on the surface of …; assay: TAP-deficient T2 cell assay, flow cytometry

Molecule: CSCC[C@H](NC(=O)[C@@H](NC(=O)[C@H](CC(=O)O)NC(=O)[C@@H](NC(=O)[C@H](CC(C)C)NC(=O)[C@@H](N)CO)C(C)C)C(C)C)C(=O)N1CCC[C@H]1C(=O)N[C@@H](Cc1c[nH]c2ccccc12)C(=O)N[C@@H](CC(C)C)C(=O)O [CYP239] (H-SLVDVMPWL-OH)
cytotoxicity for HLA-A2+ FL by peptide-specific CTL [1]: cytotoxic | healthy donors with peptide-specific T cells detected / expansion [2]: No expansion | patients with reactive T cells >0.05% on day 10 [3]: 4 | cytotoxicity against 36M by peptide-specific CTL [4]: specific cytotoxicity

Molecule: CSCC[C@H](NC(=O)[C@@H](NC(=O)[C@H](CC(=O)O)NC(=O)[C@H](Cc1ccc(O)cc1)NC(=O)[C@H](CC(C)C)NC(=O)[C@@H](N)Cc1ccc(O)cc1)C(C)C)C(=O)N1CCC[C@H]1C(=O)N[C@@H](Cc1c[nH]c2ccccc12)C(=O)N[C@H](C(=O)O)C(C)C [CYP239-139] (H-YLYDVMPWV-OH; N-terminus and C-terminus assumed)
recognition by CYP239-specific CTL of target cells pulsed with heteroclitic peptide [5]: do not recognize

HLA-A2/peptide complex stability [6]: longest half-life on the cell surface | time after peptide withdrawal at which peptide/A2 complexes can be detected [6]: ≥ 24 h
Molecule: FLDPRPLTV [CYP190]
generation of peptide-specific CTL from cancer patients [7]: can be generated from HLA-A2^+ cancer patients | lysis of peptide-pulsed T2 cells by peptide-specific CTL ([5]; CTL from healthy donors): can lyse | lysis of HLA-A2+ primary ALL cells by peptide-specific CTL [8]: can lyse | generation of peptide-specific CTL from normal donors [9]: can be generated from normal HLA-A2^+ donors

Molecule: CC(C)C[C@H](NC(=O)[C@@H](N)Cc1c[nH]c2ccccc12)C(=O)N[C@@H](CCC(N)=O)C(=O)N[C@@H](Cc1ccc(O)cc1)C(=O)N[C@@H](Cc1ccccc1)C(=O)N1CCC[C@H]1C(=O)N[C@@H](CC(N)=O)C(=O)N1CCC[C@H]1C(=O)N[C@H](C(=O)O)C(C)C [CYP246] (H-WLQYFPNPV-OH; N-terminus and C-terminus assumed)
cytotoxicity for HLA-A2+ FL by peptide-specific CTL [1]: cytotoxic | highest level of peptide-specific T cells in one healthy donor ([2]; day 10): 0.5% | healthy donors with peptide-specific T cells detected / expansion [2]: 2 | patients with reactive T cells >0.05% on day 10 [3]: 5 | cytotoxicity against 36M by peptide-specific CTL [4]: specific cytotoxicity

Molecule: CSCC[C@H](NC(=O)[C@@H](NC(=O)[C@H](CC(=O)O)NC(=O)[C@@H](NC(=O)[C@H](CC(C)C)NC(=O)[C@@H](N)Cc1ccc(O)cc1)C(C)C)C(C)C)C(=O)N1CCC[C@H]1C(=O)N[C@@H](Cc1c[nH]c2ccccc12)C(=O)N[C@H](C(=O)O)C(C)C [CYP239-19] (H-YLVDVMPWV-OH; N-terminus and C-terminus assumed)
recognition by CYP239-specific CTL of target cells pulsed with heteroclitic peptide [5]: equally well

T2 assay result at 0 h post-pulsing [10]: 2 | T2 assay result at 2 h post-pulsing [10]: 1.51 | T2 assay result at 4 h post-pulsing [10]: 1.24 | T2 assay result at 6 h post-pulsing [10]: 1.16 | T2 assay result at 24 h post-pulsing [10]: 0.73
B1: CYP239-139 heteroclitic peptide (YLYDVMPWV) (peptide)
peptide: YLYDVMPWV
notes: Designed variant of CYP239 changed at positions 1, 3 and 9

T2 assay result at 0 h post-pulsing [10]: 2.16 | T2 assay result at 2 h post-pulsing [10]: 1.57 | T2 assay result at 4 h post-pulsing [10]: 1.31 | T2 assay result at 6 h post-pulsing [10]: 1.13 | T2 assay result at 24 h post-pulsing [10]: 0.72
B2: CYP239-19 heteroclitic peptide (YLVDVMPWV) (peptide)
peptide: YLVDVMPWV
notes: Designed variant of CYP239 changed at positions 1 and 9

Binding affinity [FI] (fluorescence index) [11]: 3.4
B3: CYP246 peptide from cytochrome P450 1B1 (WLQYFPNPV) (peptide)
peptide: WLQYFPNPV

T2 assay result at 0 h post-pulsing [10]: 1.91 | T2 assay result at 2 h post-pulsing [10]: 1.37 | T2 assay result at 4 h post-pulsing [10]: 0.78 | T2 assay result at 6 h post-pulsing [10]: 0.58 | T2 assay result at 24 h post-pulsing [10]: 0.12 | Binding affinity [FI] (fluorescence index) [11]: 3.8
B4: CYP239 peptide from cytochrome P450 1B1 (SLVDVMPWL) (peptide)
peptide: SLVDVMPWL
notes: Synthetic peptide bought from Sigma Genosys

binding result [12]: binds
B5: CYP190 peptide from cytochrome P450 1B1 (FLDPRPLTV) (peptide)
peptide: FLDPRPLTV
